One series has as its target T1, BkTauF (Bifidobacterium catenulatum, UniProt A0A0A7I0A5).
T1 construct: gene AH68_00250; codon-optimized gene; His6-MBP-TEV-GGG fusion in E. coli BL21(DE3), tag cut by TEV protease, GGG linker before N-terminus; 375 residues seen, 41 kDa monomer, dimer; Zn2+ enzyme
As to the kind of experiment: X-ray crystal structure, […] Å. The format is binding. The note with it: binary complex; nucleotide site in cleft between N- and C-terminal domains.

For series [1], the target named is Bifidobacterium kashiwanohense TauF (sulfoacetaldehyde reductase) (Bifidobacterium kashiwanohense). In words: SEC; Superdex200 gel filtration, 5 mg/ml BkTauF, 4 ml injected, buffer C (20 mM Tris pH 7.5, 200 mM KCl, 1 mM DTT), 2 ml/min; molecular weight from the elution volume against markers. (In general: Size exclusion chromatography separates by hydrodynamic size, large species first.)

Substrate in series [2]: NC(=O)c1ccc[n+]([C@@H]2O[C@H](COP(=O)(O)OP(=O)(O)OC[C@H]3O[C@@H](n4cnc5c(N)ncnc54)[C@H](O)[C@@H]3O)[C@@H](O)[C@H]2O)c1
In words: spectrophotometric NADH formation, A340. The series is classed as biochemical, Bifidobacterium catenulatum. Conditions: isethionate oxidation, 100 mM isethionate, 50 mM CAPSO pH 10.0, room temperature. An excerpt:
spectrophotometric NADH formation, A340 on BkTauF

Substrate in series [3]: NC(=O)C1=CN([C@@H]2O[C@H](COP(=O)(O)OP(=O)(O)OC[C@H]3O[C@@H](n4cnc5c(N)ncnc54)[C@H](O)[C@@H]3O)[C@@H](O)[C@H]2O)C=CC1
As to the kind of experiment: spectrophotometric NADH assay, A340. The series is classed as biochemical, Bifidobacterium catenulatum. Conditions: sulfoacetaldehyde reduction; 5 mM sulfoacetaldehyde, 50 mM Tris/HCl pH 7.5, room temperature; pH 7.5. The text has this:
(§1) spectrophotometric NADH assay, A340 on BkTauF

Substrate in series [4]: O=CCS(=O)(=O)O
As to the kind of experiment: spectrophotometric NADH assay, A340. Conditions: sulfoacetaldehyde introduced as bisulfite adduct; 0.5 mM NADH, 50 mM Tris/HCl pH 7.5, room temperature; pH 7.5. The series is classed as biochemical, Bifidobacterium catenulatum.
Text: as §1

Substrate in series [5]: O=S(=O)(O)CCO
In words: spectrophotometric NADH assay, A340. The series is classed as biochemical, Bifidobacterium catenulatum. The note with it: isethionate oxidation; 1 mM NAD+, 50 mM CAPSO pH 10.0, room temperature; pH 10.0.
Text: as §1

Substrate in series [6]: NC(=O)c1ccc[n+]([C@@H]2O[C@H](COP(=O)(O)OP(=O)(O)OC[C@H]3O[C@@H](n4cnc5c(N)ncnc54)[C@H](OP(=O)(O)O)[C@@H]3O)[C@@H](O)[C@H]2O)c1
As to the kind of experiment: spectrophotometric NADPH formation, A340. The format is biochemical, Bifidobacterium catenulatum. Conditions: isethionate oxidation, 100 mM isethionate, 50 mM CAPSO pH 10.0, room temperature. The text has this: spectrophotometric NADPH formation, A340 on BkTauF

Substrate in series [7]: NC(=O)C1=CN([C@@H]2O[C@H](COP(=O)(O)OP(=O)(O)OC[C@H]3O[C@@H](n4cnc5c(N)ncnc54)[C@H](OP(=O)(O)O)[C@@H]3O)[C@@H](O)[C@H]2O)C=CC1
As to the kind of experiment: spectrophotometric NADPH assay, A340. The format is biochemical, Bifidobacterium catenulatum. The note with it: sulfoacetaldehyde reduction, 5 mM sulfoacetaldehyde, 50 mM Tris/HCl pH 7.5, room temperature. An excerpt: spectrophotometric NADPH assay, A340 on BkTauF

As to `NC(=O)c1ccc[n+]([C@@H]2O[C@H](COP(=O)(O)OP(=O)(O)OC[C@H]3O[C@@H](n4cnc5c(N)ncnc54)[C@H](O)[C@@H]3O)[C@@H](O)[C@H]2O)c1` [NAD^+], on BkTauF, the “X-ray crystal structure, 3.0 Å” value is reported as “The electron density is well defined for NAD^+”.

As usually defined, the stoichiometry N is a count of units in the complex or per binding partner. The molecule “Bifidobacterium kashiwanohense TauF (sulfoacetaldehyde reductase) (enzyme)” had a stoichiometry N in series [1] of 2.

B1: BkTauF (Bifidobacterium catenulatum subsp. puerorum PV20-2) (protein)
chain: MLWDYAQPVTIRFGKGRAMEIKDIAEAMGLHDGIMVTPKFFVDSGEAQRLIDASDGAVSTVFTDFSPNPDVTEVDACAEIIRKNHCEFVVAMGGGSAMDVSKAAASICLTDDSIADYHGTGKAMPQKHLPIIALPTTAGTGSEVTCVSVLTNRKLGKKAPIVSDGFFPSVAIVDPELTYSVPPKITASTGMDVLSQAIEGFWSKGHQPICDSCAAHAAKLVFKYLPIAVAEPHNEEAREKMCEASVIAGLAFTLPKTTSSHACSFPLTNIHGIPHGEACGLTLDYFARINKDAQHGRVQEFARGIGFKDVDAMADAIHDLKVRIGMRTGLKDLNLTEEQIADLVRISRHPNLYNNPVEITDDMLDTMYHYLASTD
notes: codon-optimized gene; His6-MBP-TEV-GGG fusion in E. coli BL21(DE3), tag cut by TEV protease, GGG linker before N-terminus; 375 residues seen, 41 kDa monomer, dimer; Zn2+ enzyme
In general, Km refers to the concentration of substrate that gives half-maximal velocity. The kcat is the maximal rate divided by the concentration of active sites. As a reminder, the kcat/Km is the second-order rate constant that governs catalysis at low substrate concentration. Regarding B1, the Km in series [2] was 80 ± 0 µM; in series [3], 60 ± 10 µM; in series [4], 500 ± 40 µM; in series [5], 4440 ± 590 µM; in series [6], 770 ± 80 µM; in series [7] it was 730 ± 80 µM. Further, the catalytic constant (kcat) stood at 1.3 ± 0.02 s⁻¹ in series [2]; 18.7 ± 0.52 s⁻¹ in series [3]; 22.8 ± 0.68 s⁻¹ in series [4]; 0.97 ± 0.03 s⁻¹ in series [5]; 0.8 ± 0.02 s⁻¹ in series [6]; 19 ± 1.13 s⁻¹ in series [7]. Moreover, the specificity constant (kcat/Km) in series [2] came to 15800 M⁻¹ s⁻¹; in series [3] it was 301000 M⁻¹ s⁻¹; in series [4], 46100 M⁻¹ s⁻¹; in series [5], 218 M⁻¹ s⁻¹; in series [6], 1030 M⁻¹ s⁻¹; in series [7], 26200 M⁻¹ s⁻¹.

For the origin of these results see publication PMC6616044, “Identification and characterization of a new sulfoacetaldehyde reductase from the human gut bacterium Bifidobacterium kashiwanohense” (Bioscience Reports, 2019).
